Target: VHL (VHL/ElonginB/ElonginC, VCB) as used in solution (UniProt P40337 1-213; Q15370 1-104; Q15369 17-112)
Assay: FP; MZ1 ternary

Sequence of VHL (VHL/ElonginB/ElonginC, VCB) as used in solution (P40337 whole entry, chain 1 of 3): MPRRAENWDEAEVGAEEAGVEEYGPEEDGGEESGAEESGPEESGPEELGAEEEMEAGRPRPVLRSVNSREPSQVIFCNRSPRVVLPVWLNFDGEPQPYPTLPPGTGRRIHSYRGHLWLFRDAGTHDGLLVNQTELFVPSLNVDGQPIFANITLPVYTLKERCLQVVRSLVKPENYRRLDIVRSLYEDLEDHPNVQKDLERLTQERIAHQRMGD
Sequence of VHL (VHL/ElonginB/ElonginC, VCB) as used in solution (Q15370 1-104, chain 2 of 3): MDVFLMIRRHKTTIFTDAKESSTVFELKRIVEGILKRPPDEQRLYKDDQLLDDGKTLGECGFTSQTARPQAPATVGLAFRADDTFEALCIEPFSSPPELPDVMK
Sequence of VHL (VHL/ElonginB/ElonginC, VCB) as used in solution (Q15369 17-112, chain 3 of 3): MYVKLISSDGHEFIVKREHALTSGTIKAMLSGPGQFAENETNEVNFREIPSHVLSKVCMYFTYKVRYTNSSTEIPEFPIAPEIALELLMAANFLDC

Ki: 6 nM
B1: Brd2^BD2 with the G-to-E point mutation at Gly382 (domain or fragment)
chain: GKLSEQLKHCNGILKELLSKKHAAYAWPFYKPVDASALELHDYHDIIKHPMDLSTVKRKMENRDYRDAQEFAADVRLMFSNCYKYNPPDHDVVAMARKLQDVFEFRYAKMPD

Source: article PMC6423499 (2019)
